Patent US20250066503A1, “CELL INJURY INDUCING THERAPEUTIC DRUG FOR USE IN CANCER THERAPY” (CHUGAI SEIYAKU KABUSHIKI KAISHA, priority 2016, published 2025)

molecular target: T1, human GPC3 (human, UniProt P51654 25-563); assay: SPR
T1 construct: range 25-563; soluble analyte; also called soluble human GPC3; glypican 3
T1 sequence (P51654 25-563 limits assumed): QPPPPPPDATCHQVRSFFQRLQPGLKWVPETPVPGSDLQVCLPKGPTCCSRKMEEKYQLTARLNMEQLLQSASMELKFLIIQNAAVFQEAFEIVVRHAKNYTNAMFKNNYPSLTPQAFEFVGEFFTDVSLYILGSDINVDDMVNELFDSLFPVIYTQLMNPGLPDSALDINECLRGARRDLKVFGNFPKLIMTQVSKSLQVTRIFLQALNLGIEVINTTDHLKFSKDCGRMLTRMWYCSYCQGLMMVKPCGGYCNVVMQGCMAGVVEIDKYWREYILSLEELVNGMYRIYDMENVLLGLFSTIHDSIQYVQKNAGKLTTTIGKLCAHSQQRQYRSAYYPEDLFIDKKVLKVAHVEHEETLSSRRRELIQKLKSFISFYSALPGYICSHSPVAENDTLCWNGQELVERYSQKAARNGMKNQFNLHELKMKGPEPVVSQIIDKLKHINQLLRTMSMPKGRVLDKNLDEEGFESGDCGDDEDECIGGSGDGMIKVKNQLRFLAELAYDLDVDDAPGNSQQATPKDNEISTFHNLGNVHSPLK

Binder	Kd [nM]
H0610-G1dh/none-Hi-Kn010G3/L0263-k0 (antibody, V domains shown, one-arm) VH: QVQLVQSGAEVKKPGASVKVSCKASGYTFTDYEMHWIRQPPGQGLEWIGAIDGKTPDTAYSQKFKGRVTLTADKSTSTAYMELSSLTSEDTAVYYCTRFYSYTYWGQGTLVTVSS VL: DIVMTQSPLSLPVTPGEPASISCRSSQSPVHSNRNTYIHWYQQKPGQAPRLLIYKVSNRFSGVPDRFSGSGSGTDFTLKISRVEAEDVGVYYCAQGTQVPYTFGQGTKLEIK	0.564
H0610-G1dh/none-Hi-Kn010G3/L0240-k0 (antibody, V domains shown, one-arm) VH: QVQLVQSGAEVKKPGASVKVSCKASGYTFTDYEMHWIRQPPGQGLEWIGAIDGKTPDTAYSQKFKGRVTLTADKSTSTAYMELSSLTSEDTAVYYCTRFYSYTYWGQGTLVTVSS VL: DIVMTQSPLSLPVTPGEPASISCRSSESPVHSNRNTYLHWYQQKPGQAPRLLIYKVSNRFSGVPDRFSGSGSGTDFTLKISRVEAEDVGVYYCYQGTQVPYTFGQGTKLEIK	0.848
H0610-G1dh/none-Hi-Kn010G3/L0259-k0 (antibody, V domains shown, one-arm) VH: QVQLVQSGAEVKKPGASVKVSCKASGYTFTDYEMHWIRQPPGQGLEWIGAIDGKTPDTAYSQKFKGRVTLTADKSTSTAYMELSSLTSEDTAVYYCTRFYSYTYWGQGTLVTVSS VL: DIVMTQSPLSLPVTPGEPASISCRSSQSPVHSNRNTYIHWYQQKPGQAPRLLIYKVSNRFSGVPDRFSGSGSGTDFTLKISRVEAEDVGVYYCTQGTQVPYTFGQGTKLEIK	0.334
H0610-G1dh/none-Hi-Kn010G3/L0238-k0 (antibody, V domains shown, one-arm) VH: QVQLVQSGAEVKKPGASVKVSCKASGYTFTDYEMHWIRQPPGQGLEWIGAIDGKTPDTAYSQKFKGRVTLTADKSTSTAYMELSSLTSEDTAVYYCTRFYSYTYWGQGTLVTVSS VL: DIVMTQSPLSLPVTPGEPASISCRSSEPPVHSNRNTYLHWYQQKPGQAPRLLIYKVSNRFSGVPDRFSGSGSGTDFTLKISRVEAEDVGVYYCYQGTQVPYTFGQGTKLEIK	0.637
H0610-G1dh/none-Hi-Kn010G3/L0234-k0 (antibody, V domains shown, one-arm) VH: QVQLVQSGAEVKKPGASVKVSCKASGYTFTDYEMHWIRQPPGQGLEWIGAIDGKTPDTAYSQKFKGRVTLTADKSTSTAYMELSSLTSEDTAVYYCTRFYSYTYWGQGTLVTVSS VL: DIVMTQSPLSLPVTPGEPASISCRSSQEPVHSNRNTYLHWYQQKPGQAPRLLIYKVSNRFRGVPDRFSGSGSGTDFTLKISRVEAEDVGVYYCGQGTQVPYTFGQGTKLEIK	0.778
H0610-G1dh/none-Hi-Kn010G3/L0249-k0 (antibody, V domains shown, one-arm) VH: QVQLVQSGAEVKKPGASVKVSCKASGYTFTDYEMHWIRQPPGQGLEWIGAIDGKTPDTAYSQKFKGRVTLTADKSTSTAYMELSSLTSEDTAVYYCTRFYSYTYWGQGTLVTVSS VL: DIVMTQSPLSLPVTPGEPASISCRPSQSPVHSNRNTYIQWYQQKPGQAPRLLIYKVSNRFSGVPDRFSGSGSGTDFTLKISRVEAEDVGVYYCSQGTQVPYTFGQGTKLEIK	0.00686
H0610-G1dh/none-Hi-Kn010G3/L0261-k0 (antibody, V domains shown, one-arm) VH: QVQLVQSGAEVKKPGASVKVSCKASGYTFTDYEMHWIRQPPGQGLEWIGAIDGKTPDTAYSQKFKGRVTLTADKSTSTAYMELSSLTSEDTAVYYCTRFYSYTYWGQGTLVTVSS VL: DIVMTQSPLSLPVTPGEPASISCRSSQSPVHSNRNTYIQWYQQKPGQAPRLLIYKVSNRFSGVPDRFSGSGSGTDFTLKISRVEAEDVGVYYCTQGTQVPYTFGQGTKLEIK	0.0107
H0610-G1dh/none-Hi-Kn010G3/L0265-k0 (antibody, V domains shown, one-arm) VH: QVQLVQSGAEVKKPGASVKVSCKASGYTFTDYEMHWIRQPPGQGLEWIGAIDGKTPDTAYSQKFKGRVTLTADKSTSTAYMELSSLTSEDTAVYYCTRFYSYTYWGQGTLVTVSS VL: DIVMTQSPLSLPVTPGEPASISCRSSQSPVHSNRNTYIQWYQQKPGQAPRLLIYKVSNRFSGVPDRFSGSGSGTDFTLKISRVEAEDVGVYYCAQGTQVPYTFGQGTKLEIK	0.0087
H0610-G1dh/none-Hi-Kn010G3/L0266-k0 (antibody, V domains shown, one-arm) VH: QVQLVQSGAEVKKPGASVKVSCKASGYTFTDYEMHWIRQPPGQGLEWIGAIDGKTPDTAYSQKFKGRVTLTADKSTSTAYMELSSLTSEDTAVYYCTRFYSYTYWGQGTLVTVSS VL: DIVMTQSPLSLPVTPGEPASISCRSSQPPVHSNRNTYLHWYQQKPGQAPRLLIYKVSNRFSGVPDRFSGSGSGTDFTLKISRVEAEDVGVYYCVQGTQVPYTFGQGTKLEIK	0.213
H0610-G1dh/none-Hi-Kn010G3/L0268-k0 (antibody, V domains shown, one-arm) VH: QVQLVQSGAEVKKPGASVKVSCKASGYTFTDYEMHWIRQPPGQGLEWIGAIDGKTPDTAYSQKFKGRVTLTADKSTSTAYMELSSLTSEDTAVYYCTRFYSYTYWGQGTLVTVSS VL: DIVMTQSPLSLPVTPGEPASISCRSSQSPVHSNRNTYIQWYQQKPGQAPRLLIYKVSNRFSGVPDRFSGSGSGTDFTLKISRVEAEDVGVYYCVQGTQVPYTFGQGTKLEIK	0.0169
H0610-G1dh/none-Hi-Kn010G3/L0237-k0 (antibody, V domains shown, one-arm) VH: QVQLVQSGAEVKKPGASVKVSCKASGYTFTDYEMHWIRQPPGQGLEWIGAIDGKTPDTAYSQKFKGRVTLTADKSTSTAYMELSSLTSEDTAVYYCTRFYSYTYWGQGTLVTVSS VL: DIVMTQSPLSLPVTPGEPASISCRSSQEPVHSNRNTYIHWYQQKPGQAPRLLIYKVSNRFSGVPDRFSGSGSGTDFTLKISRVEAEDVGVYYCYQGTQVPYTFGQGTKLEIK	1.31

More lines, in order of falling Kd, values ahead:

Kd [nM]	Binder
5.38	H0610-G1dh/none-Hi-Kn010G3/L0232-k0 (antibody, V domains shown, one-arm) VH: QVQLVQSGAEVKKPGASVKVSCKASGYTFTDYEMHWIRQPPGQGLEWIGAIDGKTPDTAYSQKFKGRVTLTADKSTSTAYMELSSLTSEDTAVYYCTRFYSYTYWGQGTLVTVSS VL: DIVMTQSPLSLPVTPGEPASISCRSSESLVHSNRNTYLHWYQQKPGQAPRLLIYKVSNRFSGVPDRFSGSGSGTDFTLKISRVEAEDVGVYYCGQGTQVPYTFGQGTKLEIK
3.55	H0610-G1dh/none-Hi-Kn010G3/L0233-k0 (antibody, V domains shown, one-arm) VH: QVQLVQSGAEVKKPGASVKVSCKASGYTFTDYEMHWIRQPPGQGLEWIGAIDGKTPDTAYSQKFKGRVTLTADKSTSTAYMELSSLTSEDTAVYYCTRFYSYTYWGQGTLVTVSS VL: DIVMTQSPLSLPVTPGEPASISCRSSQELVHSNRNTYLHWYQQKPGQAPRLLIYKVSNRFSGVPDRFSGSGSGTDFTLKISRVEAEDVGVYYCGQGTQVPYTFGQGTKLEIK
1.19	H0610-G1dh/none-Hi-Kn010G3/L0242-k0 (antibody, V domains shown, one-arm) VH: QVQLVQSGAEVKKPGASVKVSCKASGYTFTDYEMHWIRQPPGQGLEWIGAIDGKTPDTAYSQKFKGRVTLTADKSTSTAYMELSSLTSEDTAVYYCTRFYSYTYWGQGTLVTVSS VL: DIVMTQSPLSLPVTPGEPASISCRSSESPVHSNRNTYIHWYQQKPGQAPRLLIYKVSNRFSGVPDRFSGSGSGTDFTLKISRVEAEDVGVYYCYQGTQVPYTFGQGTKLEIK
0.874	H0610-G1dh/none-Hi-Kn010G3/L0239-k0 (antibody, V domains shown, one-arm) VH: QVQLVQSGAEVKKPGASVKVSCKASGYTFTDYEMHWIRQPPGQGLEWIGAIDGKTPDTAYSQKFKGRVTLTADKSTSTAYMELSSLTSEDTAVYYCTRFYSYTYWGQGTLVTVSS VL: DIVMTQSPLSLPVTPGEPASISCRSSESPVHSNRNTYLHWYQQKPGQAPRLLIYKVSNRFRGVPDRFSGSGSGTDFTLKISRVEAEDVGVYYCGQGTQVPYTFGQGTKLEIK
0.649	H0610-G1dh/none-Hi-Kn010G3/L0243-k0 (antibody, V domains shown, one-arm) VH: QVQLVQSGAEVKKPGASVKVSCKASGYTFTDYEMHWIRQPPGQGLEWIGAIDGKTPDTAYSQKFKGRVTLTADKSTSTAYMELSSLTSEDTAVYYCTRFYSYTYWGQGTLVTVSS VL: DIVMTQSPLSLPVTPGEPASISCRSSEPPVHSNRNTYLHWYQQKPGQAPRLLIYKVSNRFRGVPDRFSGSGSGTDFTLKISRVEAEDVGVYYCGQGTQVPYTFGQGTKLEIK
0.219	H0610-G1dh/none-Hi-Kn010G3/L0264-k0 (antibody, V domains shown, one-arm) VH: QVQLVQSGAEVKKPGASVKVSCKASGYTFTDYEMHWIRQPPGQGLEWIGAIDGKTPDTAYSQKFKGRVTLTADKSTSTAYMELSSLTSEDTAVYYCTRFYSYTYWGQGTLVTVSS VL: DIVMTQSPLSLPVTPGEPASISCRPSQSPVHSNRNTYLHWYQQKPGQAPRLLIYKVSNRFSGVPDRFSGSGSGTDFTLKISRVEAEDVGVYYCAQGTQVPYTFGQGTKLEIK
0.211	H0610-G1dh/none-Hi-Kn010G3/L0262-k0 (antibody, V domains shown, one-arm) VH: QVQLVQSGAEVKKPGASVKVSCKASGYTFTDYEMHWIRQPPGQGLEWIGAIDGKTPDTAYSQKFKGRVTLTADKSTSTAYMELSSLTSEDTAVYYCTRFYSYTYWGQGTLVTVSS VL: DIVMTQSPLSLPVTPGEPASISCRSSQPPVHSNRNTYLHWYQQKPGQAPRLLIYKVSNRFSGVPDRFSGSGSGTDFTLKISRVEAEDVGVYYCAQGTQVPYTFGQGTKLEIK
0.179	H0610-G1dh/none-Hi-Kn010G3/L0267-k0 (antibody, V domains shown, one-arm) VH: QVQLVQSGAEVKKPGASVKVSCKASGYTFTDYEMHWIRQPPGQGLEWIGAIDGKTPDTAYSQKFKGRVTLTADKSTSTAYMELSSLTSEDTAVYYCTRFYSYTYWGQGTLVTVSS VL: DIVMTQSPLSLPVTPGEPASISCRPSQSPVHSNRNTYLHWYQQKPGQAPRLLIYKVSNRFSGVPDRFSGSGSGTDFTLKISRVEAEDVGVYYCVQGTQVPYTFGQGTKLEIK
0.0555	H0610-G1dh/none-Hi-Kn010G3/L0248-k0 (antibody, V domains shown, one-arm) VH: QVQLVQSGAEVKKPGASVKVSCKASGYTFTDYEMHWIRQPPGQGLEWIGAIDGKTPDTAYSQKFKGRVTLTADKSTSTAYMELSSLTSEDTAVYYCTRFYSYTYWGQGTLVTVSS VL: DIVMTQSPLSLPVTPGEPASISCRPSQSPVHSNRNTYIQWYQQKPGQAPRLLIYKVSNRFSGVPDRFSGSGSGTDFTLKISRVEAEDVGVYYCYQGTQVPYTFGQGTKLEIK
0.00121	H0610-G1dh/none-Hi-Kn010G3/L0246-k0 (antibody, V domains shown, one-arm) VH: QVQLVQSGAEVKKPGASVKVSCKASGYTFTDYEMHWIRQPPGQGLEWIGAIDGKTPDTAYSQKFKGRVTLTADKSTSTAYMELSSLTSEDTAVYYCTRFYSYTYWGQGTLVTVSS VL: DIVMTQSPLSLPVTPGEPASISCRSSQSPVHSNRNTYIQWYQQKPGQAPRLLIYKVSNRFSGVPDRFSGSGSGTDFTLKISRVEAEDVGVYYCSQGTQVPYTFGQGTKLEIK
0.000352	H0610-G1dh/none-Hi-Kn010G3/L0258-k0 (antibody, V domains shown, one-arm) VH: QVQLVQSGAEVKKPGASVKVSCKASGYTFTDYEMHWIRQPPGQGLEWIGAIDGKTPDTAYSQKFKGRVTLTADKSTSTAYMELSSLTSEDTAVYYCTRFYSYTYWGQGTLVTVSS VL: DIVMTQSPLSLPVTPGEPASISCRSSQPPVHSNRNTYLHWYQQKPGQAPRLLIYKVSNRFSGVPDRFSGSGSGTDFTLKISRVEAEDVGVYYCTQGTQVPYTFGQGTKLEIK
